Results as given in paper PMC12394722, “Regulatory role of the N-terminal intrinsically disordered region of the DEAD-box RNA helicase DDX3X in selective RNA recognition”.

Target: MBP-FL DDX3X (human, UniProt O00571 1-662)
Test: EMSA; 1 mM ATP-Mg; peer review file prints 665; EMSA: 20 mM K-phosphate pH 7.0, 125 mM KCl, 1 mM DTT, 0.005% Tween-20, 10% glycerol (1 mM ATP-Mg for MBP-FL/Core-C), gel at room temperature; ITC: 20 mM K-phosphate pH 7.0, 50 mM KCl, 25 C; NMR: 200 mM KCl (also 120 mM), 10 C, 50 uM
Details: protein: recombinant; tags: N-terminal His6-MBP; chain copies: 2; label: 3'-FAM; blunt, self-complementary

MBP-FL DDX3X, sequence (O00571 whole entry): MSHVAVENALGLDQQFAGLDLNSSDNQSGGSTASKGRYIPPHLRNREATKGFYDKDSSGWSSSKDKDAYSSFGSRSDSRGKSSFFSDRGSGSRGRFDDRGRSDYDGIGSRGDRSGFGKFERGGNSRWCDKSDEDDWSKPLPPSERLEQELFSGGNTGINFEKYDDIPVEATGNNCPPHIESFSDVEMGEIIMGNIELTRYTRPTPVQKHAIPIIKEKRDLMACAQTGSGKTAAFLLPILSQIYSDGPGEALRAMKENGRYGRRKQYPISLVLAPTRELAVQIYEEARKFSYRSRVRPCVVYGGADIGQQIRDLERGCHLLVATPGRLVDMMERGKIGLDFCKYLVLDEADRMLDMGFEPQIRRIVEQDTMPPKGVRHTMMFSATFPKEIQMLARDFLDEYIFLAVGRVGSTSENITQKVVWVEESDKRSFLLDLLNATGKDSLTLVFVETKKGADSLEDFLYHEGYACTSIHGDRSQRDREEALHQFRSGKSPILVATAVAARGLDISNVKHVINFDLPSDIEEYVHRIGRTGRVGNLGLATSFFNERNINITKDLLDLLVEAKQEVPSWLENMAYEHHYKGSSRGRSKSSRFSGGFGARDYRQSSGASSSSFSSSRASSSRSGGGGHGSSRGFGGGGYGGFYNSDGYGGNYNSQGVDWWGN

B1: GC-14mer dsRNA-FAM (dsRNA)
RNA 1: GGGCGGGCCCGCCC
RNA 2: GGGCGGGCCCGCCC
B1 gave a Kd of 655 ± 31 nM.
